From patent US20260207759A1 (SUZHOU SUNCADIA BIOPHARMACEUTICALS, published 2026)
Residue numbers refer to the chain shown, from its start. In names and notes the source's numbering stands. Where two headings read alike, the source gives them in different places.

Key:
[1] = molecular target: T1, human CD40 on the cell surface (Raji cells, HEK-Blue CD40L cells, primary human B cells and DCs) (human, UniProt P25942 21-277); assay: cell-based or functional assay
[2] = molecular target: T1, human CD40 on the cell surface (Raji …); assay: flow cytometry (FACS) binding to Raji cells
[3] = molecular target: T1, human CD40 on the cell surface (Raji …); assay: flow cytometry (FACS) binding to Raji cells; remark: listed apart in the source
[4] = molecular target: T1, human CD40 on the cell surface (Raji …); assay: cell-based or functional assay; remark: listed apart in the source
[5] = molecular target: T1, human CD40 on the cell surface (Raji …); assay: cell-based or functional assay; remark: listed apart in the source
[6] = molecular target: T1, human CD40 on the cell surface (Raji …); assay: cell-based or functional assay; remark: listed apart in the source
[7] = molecular target: T1, human CD40 on the cell surface (Raji …); assay: cell-based or functional assay; remark: listed apart in the source
[8] = molecular target: T2, his-tagged human CD40 recombinant protein (h-CD40-his, Acrobiosystems Cat. #CD0-H5228) (human, UniProt P25942 21-193); assay: SPR (Biacore), antibody captured on anti-human Fc chip, His-tagged CD40 as analyte, 1:1 model
T2 construct: Purchased reagent; also called His-tagged human CD40 antigen; not shown: His tag

[9] = molecular target: T3, his-tagged cynomolgus monkey CD40 recombinant protein (cyno-CD40-his, Acrobiosystems Cat. #CD0-C52H6) (cynomolgus monkey); assay: as above
T3 construct: Purchased reagent

[10] = molecular target: T2, his-tagged human CD40 recombinant …; assay: as above; remark: listed apart in the source
[11] = molecular target: T3, his-tagged cynomolgus monkey CD40 …; assay: as above; remark: listed apart in the source
[12] = molecular target: human FcRn antigen (purchased from AcroBiosystem) (human, UniProt P55899 24-297; P61769 21-119); assay: SPR (Biacore), antibody captured on anti-human Fab chip, human FcRn as analyte, steady state model
Chain of human FcRn antigen (purchased from AcroBiosystem) (P55899 24-297 limits assumed, chain 1 of 2): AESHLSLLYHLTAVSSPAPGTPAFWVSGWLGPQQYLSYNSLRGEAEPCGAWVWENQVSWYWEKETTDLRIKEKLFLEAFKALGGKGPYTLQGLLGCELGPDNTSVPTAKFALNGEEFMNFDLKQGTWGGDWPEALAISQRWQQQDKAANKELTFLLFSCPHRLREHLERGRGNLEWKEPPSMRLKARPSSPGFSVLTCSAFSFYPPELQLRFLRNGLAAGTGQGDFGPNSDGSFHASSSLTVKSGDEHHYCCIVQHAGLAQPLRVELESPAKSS
Chain of human FcRn antigen (purchased from AcroBiosystem) (P61769 21-119 limits assumed, chain 2 of 2): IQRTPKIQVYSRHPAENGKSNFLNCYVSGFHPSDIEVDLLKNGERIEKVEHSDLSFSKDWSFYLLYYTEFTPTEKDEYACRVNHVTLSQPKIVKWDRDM

T2 sequence (P25942 21-193 limits assumed): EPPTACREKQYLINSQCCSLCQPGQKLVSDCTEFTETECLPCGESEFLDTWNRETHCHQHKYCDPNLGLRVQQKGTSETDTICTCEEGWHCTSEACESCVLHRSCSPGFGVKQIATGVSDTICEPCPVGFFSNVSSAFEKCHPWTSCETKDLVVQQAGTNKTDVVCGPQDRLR
T1 sequence (P25942 21-277): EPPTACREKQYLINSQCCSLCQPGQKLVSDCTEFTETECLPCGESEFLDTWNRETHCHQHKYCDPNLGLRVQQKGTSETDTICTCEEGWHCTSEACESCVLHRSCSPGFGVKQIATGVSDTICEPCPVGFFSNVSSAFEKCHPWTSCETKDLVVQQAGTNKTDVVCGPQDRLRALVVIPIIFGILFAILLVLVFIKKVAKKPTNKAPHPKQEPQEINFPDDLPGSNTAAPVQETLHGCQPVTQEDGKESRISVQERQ

B1: 9E6 human-rabbit chimeric anti-CD40 antibody (antibody, V domains shown)
VH: QSVRESEGGLVKPTDTLTLTCTVSGFSLSSYDMSWVRQAPGNGLEWIGAIGGAGGTYYASWAKSRSTITRNTNLNTVTLKMSSLTAADTATYFCARGWTRLDLWGQGTLVTVSS
VL: DIVLTQTPSPVSGAVGGTVTIKCQASEDISSNLAWYQQKPGQPPKLLIFPASNLASGVSSRFKGSGSGTEFTLTISDLECADAATYYCQGGYWTSTSNFGNGFGGGTEVVVK
notes: Rabbit variable regions joined to a human IgG1 constant region with N297A (Eu numbering) and a human kappa constant region
[1]
  Reporter gene cell activity IC50 (SEAP, HEK-Blue CD40L cells stimulated with CD40L): 0.221 nM
[2]
  EC50: 0.608 nM
[3]
  EC50: 0.895 nM

B2: 9E6-L4H2 humanized anti-CD40 antibody (antibody, human IgG1, kappa, N297A)
heavy: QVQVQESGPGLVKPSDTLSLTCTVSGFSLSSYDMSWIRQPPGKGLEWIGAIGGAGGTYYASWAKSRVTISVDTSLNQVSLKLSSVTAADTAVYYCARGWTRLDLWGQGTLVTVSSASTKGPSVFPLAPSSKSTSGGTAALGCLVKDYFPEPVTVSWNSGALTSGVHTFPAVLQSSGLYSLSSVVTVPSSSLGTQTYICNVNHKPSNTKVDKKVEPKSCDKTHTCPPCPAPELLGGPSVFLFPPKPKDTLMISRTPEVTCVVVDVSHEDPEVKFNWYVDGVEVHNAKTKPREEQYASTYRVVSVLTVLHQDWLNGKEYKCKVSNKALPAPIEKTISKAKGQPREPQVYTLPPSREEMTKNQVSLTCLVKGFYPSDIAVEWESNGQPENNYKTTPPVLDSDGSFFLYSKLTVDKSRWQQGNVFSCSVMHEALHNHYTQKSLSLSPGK
light: DIQLTQSPSFLSASVGDRVTITCQASEDISSNLAWYQQKPGKPPKLLIFPASNLASGVPSRFSGSGSGTEFTLTISSLQPEDFATYYCQGGYWTSTSNFGQGFGGGTKVEIKRTVAAPSVFIFPPSDEQLKSGTASVVCLLNNFYPREAKVQWKVDNALQSGNSQESVTEQDSKDSTYSLSSTLTLSKADYEKHKVYACEVTHQGLSSPVTKSFNRGEC
notes: human IgG1 N297A (Eu) heavy chain and kappa light chain
[4]
  IC50 for the inhibition of CD40 reporter gene cell activity (Experiment 2): 0.5 nM
[5]
  B cell activation assay, CD19+CD69+ %, IC50: 0.14 nM
  B cell activation assay, CD19+CD69+ MFI, IC50: 0.07 nM
[6]
  IC50 in DC cell activation assay system, CD80 MFI: 3.44 nM
  IC50 in DC cell activation assay system, CD86 MFI: 3.72 nM
  IC50 in DC cell activation assay system, IL-12/23 p40: 1.85 nM
  IC50 in DC cell activation assay system, TNFα: 0.7 nM
[7]
  B cell activation assay, CD19+CD69+%, Donor 1, IC50: 0.44 nM
  B cell activation assay, CD19+CD69+%, Donor 2, IC50: 0.52 nM
[3]
  EC50: 0.87 nM
[8]
  Kd: 0.536 nM
  koff: 0.000221 s⁻¹
  kon: 413000 M⁻¹ s⁻¹
[9]
  Kd: 0.121 nM
  koff: 6.23e-05 s⁻¹
  kon: 514000 M⁻¹ s⁻¹
[10]
  Kd: 0.926 nM
  koff: 0.000377 s⁻¹
  kon: 407000 M⁻¹ s⁻¹
[11]
  Kd: 0.294 nM
  koff: 0.000138 s⁻¹
  kon: 468000 M⁻¹ s⁻¹
[12]
  Kd: 293 nM

B3: 9E6-L4H2-AAYTE anti-CD40 antibody (IgG1 with L234A, L235A, M252Y, S254T, T256E) (antibody)
heavy: QVQVQESGPGLVKPSDTLSLTCTVSGFSLSSYDMSWIRQPPGKGLEWIGAIGGAGGTYYASWAKSRVTISVDTSLNQVSLKLSSVTAADTAVYYCARGWTRLDLWGQGTLVTVSSASTKGPSVFPLAPSSKSTSGGTAALGCLVKDYFPEPVTVSWNSGALTSGVHTFPAVLQSSGLYSLSSVVTVPSSSLGTQTYICNVNHKPSNTKVDKKVEPKSCDKTHTCPPCPAPEAAGGPSVFLFPPKPKDTLYITREPEVTCVVVDVSHEDPEVKFNWYVDGVEVHNAKTKPREEQYNSTYRVVSVLTVLHQDWLNGKEYKCKVSNKALPAPIEKTISKAKGQPREPQVYTLPPSREEMTKNQVSLTCLVKGFYPSDIAVEWESNGQPENNYKTTPPVLDSDGSFFLYSKLTVDKSRWQQGNVFSCSVMHEALHNHYTQKSLSLSPGK
light: B2 light
[12]
  Kd: 39.8 nM

B4: 9E6-L2H1 humanized anti-CD40 antibody (antibody, human IgG1, V domains shown)
VH: EVQLQESGPGLVKPSDTLSLTCTVSGFSLSSYDMSWIRQPPGKGLEWIGAIGGAGGTYYASWAKSRVTISVDTSLNQVSLKLSSVTAADTAVYYCARGWTRLDLWGQGTLVTVSS
VL: DIQLTQSPSFLSASVGDRVTITCQASEDISSNLAWYQQKPGKPPKLLIFPASNLASGVPSRFSGSGSGTEFTLTISSLQPEDFATYYCQGGYWTSTSNFGSGFGGGTKVEIK
[3]
  EC50: 1.99 nM

B5: 9E6-L1H1 humanized anti-CD40 antibody (antibody, human IgG1, V domains shown)
VH: B4 VH
VL: B4 VL with S101N, G102V
[3]
  EC50: 1.08 nM

B6: 9E6-L1H2 humanized anti-CD40 antibody (antibody, human IgG1, V domains shown)
VH: B4 VH with E1Q, L4V
VL: B4 VL with S101N, G102V
[3]
  EC50: 1.05 nM

B7: 9E6-L2H2 humanized anti-CD40 antibody (antibody, human IgG1, V domains shown)
VH: B4 VH with E1Q, L4V
VL: B4 VL
[3]
  EC50: 1.66 nM

B8: 9E6-L3H1 humanized anti-CD40 antibody (antibody, human IgG1, V domains shown)
VH: B4 VH
VL: B4 VL with S101T
[3]
  EC50: 1.06 nM

B9: 9E6-L3H2 humanized anti-CD40 antibody (antibody, human IgG1, V domains shown)
VH: B4 VH with E1Q, L4V
VL: B4 VL with S101T
[3]
  EC50: 1.15 nM

B10: 9E6-L4H1 humanized anti-CD40 antibody (antibody, human IgG1, V domains shown)
VH: B4 VH
VL: B4 VL with S101Q
[3]
  EC50: 0.928 nM
